Reference: patent US20100111916A1

Columns and labels:
Test in all cases: cell-based or functional assay
CD80 (mouse) = CD80 (mouse) (UniProt Q00609)
CD54 (mouse) = CD54 (mouse) (UniProt P13597)
[1] = molecular target: H-2K^b/OVAI peptide complex (mouse)

Sequence of UniProt P13597 (P13597 28-537): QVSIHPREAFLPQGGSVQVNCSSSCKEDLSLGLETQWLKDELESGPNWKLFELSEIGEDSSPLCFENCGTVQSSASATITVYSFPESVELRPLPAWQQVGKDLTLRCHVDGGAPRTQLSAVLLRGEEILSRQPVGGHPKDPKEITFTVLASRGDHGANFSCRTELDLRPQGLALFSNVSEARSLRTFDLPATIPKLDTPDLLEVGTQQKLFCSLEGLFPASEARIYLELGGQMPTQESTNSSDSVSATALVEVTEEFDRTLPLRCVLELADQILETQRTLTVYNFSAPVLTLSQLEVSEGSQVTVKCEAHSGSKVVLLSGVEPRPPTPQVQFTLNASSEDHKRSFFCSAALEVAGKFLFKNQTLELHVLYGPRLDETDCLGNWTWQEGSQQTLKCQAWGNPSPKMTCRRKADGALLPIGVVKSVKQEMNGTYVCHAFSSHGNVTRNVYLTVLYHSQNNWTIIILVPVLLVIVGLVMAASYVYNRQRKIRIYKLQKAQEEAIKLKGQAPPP
Sequence of UniProt Q00609 (Q00609 38-306): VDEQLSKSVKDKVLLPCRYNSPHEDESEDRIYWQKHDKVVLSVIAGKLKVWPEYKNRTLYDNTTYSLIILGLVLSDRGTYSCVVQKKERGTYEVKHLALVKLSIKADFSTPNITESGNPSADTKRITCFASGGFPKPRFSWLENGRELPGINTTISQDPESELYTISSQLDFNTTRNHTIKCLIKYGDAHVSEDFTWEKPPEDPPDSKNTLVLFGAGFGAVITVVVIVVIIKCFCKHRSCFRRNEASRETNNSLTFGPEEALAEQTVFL

In the case of “CD28 (from UniProt P31041 20-218) (receptor)”, the inhibition of Th-APC-stimulated OT I CD8^+ T cell proliferative response by CTLA-4/Ig fusion protein (15 µg/ml) (CD80 (mouse)) is reported as 58%, the inhibition of aTEXO-stimulated OT I CD8^+ T cell proliferative response by CTLA-4/Ig (10 µg/ml) (CD80 (mouse)) is reported as 49% and the inhibition of mDCEXO-stimulated OT I CD8^+ T cell proliferative response by CTLA-4/Ig (10 µg/ml) (CD80 (mouse)) is reported as 56%.

Work on “LFA-1 (from UniProt P24063 24-1162; P11835 24-771) (receptor)” yielded an inhibition of Th-APC-stimulated OT I CD8^+ T cell proliferative response by anti-LFA-1 Ab (15 µg/ml) (CD54 (mouse)) of 50%, an inhibition of aTEXO-stimulated OT I CD8^+ T cell proliferative response by anti-LFA-1 Ab (10 µg/ml) (CD54 (mouse)) of 52% and an inhibition of mDCEXO-stimulated OT I CD8^+ T cell proliferative response by anti-LFA-1 Ab (10 µg/ml) (CD54 (mouse)) of 49%.

OVA-specific TCR of OT I CD8^+ T cells was tested, and the inhibition of Th-APC-stimulated OT I CD8^+ T cell proliferative response by anti-MHC class I Ab (15 µg/ml) [1] was 38%, the inhibition of aTEXO-stimulated OT I CD8^+ T cell proliferative response by anti-H-2K^b Ab (10 µg/ml) [1] was 49% and the inhibition of mDCEXO-stimulated OT I CD8^+ T cell proliferative response by anti-MHC class I Ab (10 µg/ml) [1] was 62%.
